Target: ZZ-CBM3 (Staphylococcus aureus)
Experiment: pull-down; ZZ-CBM3 pre-anchored on discs of cellulose hydrogel (8Cell, 14Cell, 18Cell; 5 mm, 30 mg); 100 uL of IgG (0.312-10.0 uM) in TST buffer incubated 18 h at 37 °C; free IgG in the supernatant by absorbance at 280 nm (NanoDrop), bound IgG by mass balance; triplicates

grafting yield relative to the initial amount contacted with the modified hydrogels: 26 to 89%
stoichiometry N (mol IgG per mol ZZ-CBM3): 1
Substance: Human normal immunoglobulin (IgG) (antibody)
